# Experimental data taken from paper PMC4910529 (The EMBO Journal, 2016).
# Where no end group is shown, it is not given here.
# B1: SPOP^28–359 (speckle‐type POZ protein, residues 28–359) (domain or fragment)
# chain: KVVKFSYMWTINNFSFCREEMGEVIKSSTFSSGANDKLKWCLRVNPKGLDEESKDYLSLYLLLVSCPKSEVRAKFKFSILNAKGEETKAMESQRAYRFVQGKDWGFKKFIRRDFLLDEANGLLPDDKLTLFCEVSVVQDSVNISGQNTMNMVKVPECRLADELGGLWENSRFTDCCLCVAGQEFQAHKAILAARSPVFSAMFEHEMEESKKNRVEINDVEPEVFKEMMCFIYTGKAPNLDKMADDLLAAADKYALERLKVMCEDALCSNLSVENAAEILILADLHSADQLKTQAVDFINYHASDVLETSGWKSMVVSHPHLVAEAYRSLASA
# B2: SPOP mutBACK (SPOP 28–359 Y353E) (domain or fragment)
# chain: KVVKFSYMWTINNFSFCREEMGEVIKSSTFSSGANDKLKWCLRVNPKGLDEESKDYLSLYLLLVSCPKSEVRAKFKFSILNAKGEETKAMESQRAYRFVQGKDWGFKKFIRRDFLLDEANGLLPDDKLTLFCEVSVVQDSVNISGQNTMNMVKVPECRLADELGGLWENSRFTDCCLCVAGQEFQAHKAILAARSPVFSAMFEHEMEESKKNRVEINDVEPEVFKEMMCFIYTGKAPNLDKMADDLLAAADKYALERLKVMCEDALCSNLSVENAAEILILADLHSADQLKTQAVDFINYHASDVLETSGWKSMVVSHPHLVAEAERSLASA
# Assays:
# [1] = target: SPOP X‐BACK; experiment: CG-MALS
# [2] = target: SPOP mutBACK (SPOP 28–359 Y353E) (UniProt O43791); experiment: CG-MALS
# [3] = target: SPOP mutBACK (SPOP 28–359 Y353E) (UniProt O43791); experiment: cross-linking
# [4] = target: SPOP mutBTB (SPOP 28–359 L186D L190D L193D I217K) (UniProt O43791); experiment: AUC
# [5] = target: SPOP mutBTB (SPOP 28–359 L186D L190D L193D I217K) (UniProt O43791); experiment: CG-MALS
# [6] = target: the molecule itself; experiment: native MS
# [7] = target: the molecule itself; experiment: CG-MALS
# [8] = target: B2; experiment: fluorescence polarisation
# [9] = target: B1; experiment: SEC
# [10] = target: the molecule itself; experiment: cross-linking
molecule,measurement,setting,value
SPOP X‐BACK,Kd,[1],118 µM
SPOP mutBACK (SPOP 28–359 Y353E) (from UniProt O43791 28-359) (domain or fragment),stoichiometry N,[2],2
same,stoichiometry N,[3],2
SPOP mutBTB (SPOP 28–359 L186D L190D L193D I217K) (from UniProt O43791 28-359) (domain or fragment),Kd,[4],32.5 µM
same,Kd,[5],36 µM
same,stoichiometry N,[5],2
B1,stoichiometry N,[6],8
same,Kd,[7],2.4 µM
"ENLACDEVTSTTSSSST-NH2 (not fully specified (N-terminus)) [Puc peptide, residues 91–107 of Puckered, fluorescein-labelled]",Kd,[8],4.1 µM
B2,binding result,[9],binds
SPOP ΔBACK (domain or fragment) KVVKFSYMWTINNFSFCREEMGEVIKSSTFSSGANDKLKWCLRVNPKGLDEESKDYLSLYLLLVSCPKSEVRAKFKFSILNAKGEETKAMESQRAYRFVQGKDWGFKKFIRRDFLLDEANGLLPDDKLTLFCEVSVVQDSVNISGQNTMNMVKVPECRLADELGGLWENSRFTDCCLCVAGQEFQAHKAILAARSPVFSAMFEHEMEESKKNRVEINDVEPEVFKEMMCFIYTGKAPNLDKMADDLLAAADKYALERLKVMCEDALCSNLSVENAAEILILADLHSADQLKTQAVDFINYHASDVLETSG,stoichiometry N,[10],2
